In US20130171061A1:

What was measured:
[1] = biological target: Human transferrin receptor on K562 cells (human) (UniProt P02786); assay: FACS of K562 cells with BSA-coupled fluorescent beads (negative control), 37 C with sodium azide, 1 h
[2] = biological target: Human transferrin receptor on K562 cells (human) (UniProt P02786); assay: FACS of K562 cells with BSA-coupled fluorescent beads (negative control), 37 C, 1 h
[3] = biological target: Human transferrin receptor on K562 cells (human) (UniProt P02786); assay: FACS of K562 cells with BSA-coupled fluorescent beads (negative control), 4 C, 1 h

Chain of Human transferrin receptor on K562 cells (human) (P02786 whole entry): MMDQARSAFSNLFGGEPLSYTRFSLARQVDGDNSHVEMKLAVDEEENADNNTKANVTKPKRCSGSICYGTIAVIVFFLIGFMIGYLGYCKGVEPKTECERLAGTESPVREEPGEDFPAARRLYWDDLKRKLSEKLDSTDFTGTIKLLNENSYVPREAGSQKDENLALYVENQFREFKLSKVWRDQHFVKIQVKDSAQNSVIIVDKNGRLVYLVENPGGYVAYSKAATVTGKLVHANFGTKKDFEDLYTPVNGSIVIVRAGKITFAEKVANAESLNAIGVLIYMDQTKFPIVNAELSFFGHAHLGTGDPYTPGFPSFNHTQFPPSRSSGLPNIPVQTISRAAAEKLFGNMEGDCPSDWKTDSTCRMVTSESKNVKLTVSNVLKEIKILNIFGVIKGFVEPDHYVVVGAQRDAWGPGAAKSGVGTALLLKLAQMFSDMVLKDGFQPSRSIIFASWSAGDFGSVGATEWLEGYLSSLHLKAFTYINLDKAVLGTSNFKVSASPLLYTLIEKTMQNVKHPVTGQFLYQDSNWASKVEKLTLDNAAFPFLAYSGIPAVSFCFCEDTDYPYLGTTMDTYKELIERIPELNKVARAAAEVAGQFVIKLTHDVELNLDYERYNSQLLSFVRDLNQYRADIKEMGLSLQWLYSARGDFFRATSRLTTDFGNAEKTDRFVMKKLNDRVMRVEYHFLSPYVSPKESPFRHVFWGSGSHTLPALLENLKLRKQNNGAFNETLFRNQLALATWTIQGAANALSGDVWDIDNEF

## BSA (negative control on fluorescent beads) (from UniProt P02769 25-607)
[1]
  Mean fluorescence intensity (MFI): 3.49 MFI
[2]
  Mean fluorescence intensity (MFI): 9.07 MFI
[3]
  Mean fluorescence intensity (MFI): 1.45 MFI
